This note sets out measurements from paper doi:10.1101/2025.11.06.685569 (bioRxiv, 2025).

The labels stand for the following.
B1: Myc-tagged Atg23 (natural protein, S. cerevisiae, UniProt Q06671 1-453, looked up)
chain: MELNQVLEKKEQILQYLGTLVGLHEKALSDVNSASQVTSIRKDITICLNDLCRINDLLVSHDGLLKREIGSLLRDKQELLELNEREQLLWKERKSWHIKQETDAAPADYVIDKDAIITISSHHRTSLNKYIESVGAENTILSNTDDSDAMIEEVQNAESSADQMIRNYKLLQLSHKQAKSEIIRLETLLRDFKKDNKFIEEELKRQSGRIRSEMGNIDFHLSKIEESKHQLMKRIGFESPLTQEKSLSEKIFNLRLSSADEDYNERQTINMKNFVHMKDLIELKIEDLQEQLMRNKNESSTVLTQRELWLDCQKKVGDLESKLITKLRSSSNSKIPPNEMSEMINSTIQYLNNLLDSSDEKLTTTLISNERDVLSKACEELHSESTTAQDGSSALPSKPIDIHKSHKGSNASSNLKQPSTPSFLVASKSPPKIGISESVVNANKNDAISKKVE
B2: untagged Atg23 (natural protein, S. cerevisiae, UniProt Q06671 1-453, looked up)
chain: MELNQVLEKKEQILQYLGTLVGLHEKALSDVNSASQVTSIRKDITICLNDLCRINDLLVSHDGLLKREIGSLLRDKQELLELNEREQLLWKERKSWHIKQETDAAPADYVIDKDAIITISSHHRTSLNKYIESVGAENTILSNTDDSDAMIEEVQNAESSADQMIRNYKLLQLSHKQAKSEIIRLETLLRDFKKDNKFIEEELKRQSGRIRSEMGNIDFHLSKIEESKHQLMKRIGFESPLTQEKSLSEKIFNLRLSSADEDYNERQTINMKNFVHMKDLIELKIEDLQEQLMRNKNESSTVLTQRELWLDCQKKVGDLESKLITKLRSSSNSKIPPNEMSEMINSTIQYLNNLLDSSDEKLTTTLISNERDVLSKACEELHSESTTAQDGSSALPSKPIDIHKSHKGSNASSNLKQPSTPSFLVASKSPPKIGISESVVNANKNDAISKKVE
B6: FLAG-tagged Atg9^CTR (domain or fragment, S. cerevisiae, UniProt Q12142 758-997, looked up)
chain: ENSEYVDGLGYVCKYAMFNMKNIDGEDTHSMDEDSLTKKIAVNGSHTLNSKRRSKFTAEDHSDKDLANNKMLQSYVYFMDDYSNSENLTGKYQLPAKKGYPNNEGDSFLNNKYSWRKQFQPGQKPELFRIGKHALGPGHNISPAIYSTRNPGKNWDNNNNGDDIKNGTNNATAKNDDNNGNNDHEYVLTESFLDSGAFPNHDVIDHNKMLNSNYNGNGILNKGGVLGLVKEYYKKSDVGR
B8: FLAG-tagged Atg9^NTR (domain or fragment, S. cerevisiae, UniProt Q12142 1-318, looked up)
chain: MERDEYQLPNSHGKNTFLSRIFGLQSDEVNPSLNSQEMSNFPLPDIERGSSLLHSTNDSREDVDENDLRVPESDQGTSTEEEDEVDEEQVQAYAPQISDGLDGDHQLNSVTSKENVLETEKSNLERLVEGSTDDSVPKVGQLSSEEEEDNEFINNDGFDDDTPLFQKSKIHEFSSKKSNTIEDGKRPLFFRHILQNNRPQRDTQKLFTSSNAIHHDKDKSANNGPRNINGNQKHGTKYFGSATQPRFTGSPLNNTNRFTKLFPLRKPNLLSNISVLNNTPEDRINTLSVKERALWKWANVENLDIFLQDVYNYYLGNG

The series “mass photometry” concerns the molecule itself. The experiment in a line: mass photometry.
The series “FLAG-tagged Atg9^NTR” has as its target B8. As to the kind of experiment: ITC.
In series [1] the target is B6. The experiment in a line: ITC.
The target in the series “Myc-tagged Atg23” is B1. As to the kind of experiment: pull-down.
Series [2] addresses B6. As to the kind of experiment: pull-down.
The target in another series is T1, FLAG-tagged Atg23 (S. cerevisiae, UniProt Q06671 1-453).
T1 sequence (looked up): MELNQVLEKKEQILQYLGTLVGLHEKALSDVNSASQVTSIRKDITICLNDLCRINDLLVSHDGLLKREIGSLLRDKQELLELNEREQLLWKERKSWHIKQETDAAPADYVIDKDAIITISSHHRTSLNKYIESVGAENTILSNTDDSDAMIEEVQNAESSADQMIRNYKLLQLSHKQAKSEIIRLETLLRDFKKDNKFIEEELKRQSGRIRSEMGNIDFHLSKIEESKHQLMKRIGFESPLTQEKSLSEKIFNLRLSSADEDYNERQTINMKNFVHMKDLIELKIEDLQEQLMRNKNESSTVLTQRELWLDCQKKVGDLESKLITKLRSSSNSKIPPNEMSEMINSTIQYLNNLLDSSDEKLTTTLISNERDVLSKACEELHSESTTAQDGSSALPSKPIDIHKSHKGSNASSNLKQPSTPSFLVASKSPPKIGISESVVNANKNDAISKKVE
The experiment in a line: pull-down.

The series “untagged Atg23” addresses B2. As to the kind of experiment: ITC.
The target of series [3] is T2, Atg23^Y16A_K42A_D43A_E380A mutant (S. cerevisiae, UniProt Q06671 1-453, Y16A | K42A | D43A | E380A).
T2 sequence (looked up): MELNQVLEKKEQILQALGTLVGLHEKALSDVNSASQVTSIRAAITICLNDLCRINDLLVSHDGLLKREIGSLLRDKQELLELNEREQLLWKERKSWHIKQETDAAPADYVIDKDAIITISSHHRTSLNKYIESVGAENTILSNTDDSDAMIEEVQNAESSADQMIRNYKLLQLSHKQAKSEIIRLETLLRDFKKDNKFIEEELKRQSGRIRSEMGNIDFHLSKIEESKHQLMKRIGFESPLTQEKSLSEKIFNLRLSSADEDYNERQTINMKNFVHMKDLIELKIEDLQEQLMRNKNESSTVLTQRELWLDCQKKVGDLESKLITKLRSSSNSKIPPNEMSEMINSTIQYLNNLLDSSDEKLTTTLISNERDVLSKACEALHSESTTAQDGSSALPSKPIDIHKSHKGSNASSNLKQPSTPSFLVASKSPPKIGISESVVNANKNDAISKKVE
As to the kind of experiment: pull-down.

Series [4] deals with T3, Atg23 (no tag named in the legend) (S. cerevisiae, UniProt Q06671 1-453).
T3 sequence (looked up): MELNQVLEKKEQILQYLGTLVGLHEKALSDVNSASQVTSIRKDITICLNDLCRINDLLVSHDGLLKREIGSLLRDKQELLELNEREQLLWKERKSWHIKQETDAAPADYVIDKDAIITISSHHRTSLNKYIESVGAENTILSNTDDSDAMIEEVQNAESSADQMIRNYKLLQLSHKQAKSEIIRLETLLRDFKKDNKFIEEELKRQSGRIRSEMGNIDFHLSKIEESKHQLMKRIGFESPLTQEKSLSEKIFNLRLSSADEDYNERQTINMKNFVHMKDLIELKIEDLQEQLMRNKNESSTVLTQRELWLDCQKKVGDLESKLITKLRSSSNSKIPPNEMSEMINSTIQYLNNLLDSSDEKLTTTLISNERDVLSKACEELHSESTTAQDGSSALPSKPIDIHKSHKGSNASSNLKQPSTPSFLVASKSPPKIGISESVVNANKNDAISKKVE
The experiment in a line: pull-down.

Turning to B1, in “mass photometry”, the “stoichiometry N” value came to 2.
As for B2, the “stoichiometry N” value in the series with FLAG-tagged Atg9^NTR and with FLAG-tagged Atg9^CTR [1] was approximately 1 each time.

B3: FLAG-tagged Atg9^CTR_S948A_S969A (domain or fragment, S. cerevisiae, UniProt Q12142 758-997, looked up)
chain: ENSEYVDGLGYVCKYAMFNMKNIDGEDTHSMDEDSLTKKIAVNGSHTLNSKRRSKFTAEDHSDKDLANNKMLQSYVYFMDDYSNSENLTGKYQLPAKKGYPNNEGDSFLNNKYSWRKQFQPGQKPELFRIGKHALGPGHNISPAIYSTRNPGKNWDNNNNGDDIKNGTNNATAKNDDNNGNNDHEYVLTEAFLDSGAFPNHDVIDHNKMLNANYNGNGILNKGGVLGLVKEYYKKSDVGR
For the molecule B3, the binding result with Myc-tagged Atg23 is recorded as “binds”.

B4: FLAG-tagged Atg9^CTR_Y989F_Y990F (domain or fragment, S. cerevisiae, UniProt Q12142 758-997, looked up)
chain: ENSEYVDGLGYVCKYAMFNMKNIDGEDTHSMDEDSLTKKIAVNGSHTLNSKRRSKFTAEDHSDKDLANNKMLQSYVYFMDDYSNSENLTGKYQLPAKKGYPNNEGDSFLNNKYSWRKQFQPGQKPELFRIGKHALGPGHNISPAIYSTRNPGKNWDNNNNGDDIKNGTNNATAKNDDNNGNNDHEYVLTESFLDSGAFPNHDVIDHNKMLNSNYNGNGILNKGGVLGLVKEFFKKSDVGR
In the case of B4, the binding result with Myc-tagged Atg23 is listed as “binds”.
Regarding TRGGSFQDFRAEFIQRSTQFLTSLPEFCKEVVSRILGRSTAQRGGYSAV (domain or fragment, S. cerevisiae, UniProt P46989 223-271, looked up) [SUMO*-Atg27^CTR-StrepII^2x], the binding result with FLAG-tagged Atg9^CTR [2] is on record as “binds”.

B5: Myc-Atg9^CTR_939-997-StrepII^2x (domain or fragment, S. cerevisiae, UniProt Q12142 939-997, looked up)
chain: NDHEYVLTESFLDSGAFPNHDVIDHNKMLNSNYNGNGILNKGGVLGLVKEYYKKSDVGR
For the molecule B5, the binding result in the series with FLAG-tagged Atg23 is given as “binds”.
For the molecule B6, the Kd in the series with untagged Atg23 worked out at 0.54 ± 0.08 µM. Moreover, the binding result in series [3] was “binds”.

B7: FLAG-tagged Atg9^CTR_S948D_S969D (domain or fragment, S. cerevisiae, UniProt Q12142 758-997, looked up)
chain: ENSEYVDGLGYVCKYAMFNMKNIDGEDTHSMDEDSLTKKIAVNGSHTLNSKRRSKFTAEDHSDKDLANNKMLQSYVYFMDDYSNSENLTGKYQLPAKKGYPNNEGDSFLNNKYSWRKQFQPGQKPELFRIGKHALGPGHNISPAIYSTRNPGKNWDNNNNGDDIKNGTNNATAKNDDNNGNNDHEYVLTEDFLDSGAFPNHDVIDHNKMLNDNYNGNGILNKGGVLGLVKEYYKKSDVGR
For the molecule B7, in series [4], the binding result was “binds”.
Consider B8, for which, in the series with untagged Atg23, the Kd stood at 6.7 ± 1.2 µM.
